Results as given in patent US20160340403A1 (published 2016).
One block for each molecule: values may come before it.

Experiments:
[1] = target: PE-conjugated HLA-A*02:01/MART1 26-35 heteroclitic multimer (Proimmune) (human); assay: structural avidity: flow cytometry, graded A2/MART1 multimer on Jurkat76 transfectants without CD8
[2] = target: HLA-A*02:01 presenting MART1 27-35 peptide (…) on peptide-pulsed T2 cells (human); assay: cell-based or functional assay
[3] = target: PE-conjugated HLA-A*02:01/MART1 26-35 heteroclitic multimer (Proimmune) (human); assay: structural avidity: flow cytometry, graded A2/MART1 multimer on Jurkat76/CD8αβ transfectants
[4] = target: MART1 peptide on HLA-A*02:01 (human); assay: IL-2 ELISPOT; Jurkat76 transfectants without CD8; T2 cells pulsed with graded concentrations of MART1 27-35 peptide; full-length, on cells
[5] = target: MART1 peptide on HLA-A*02:01 (human); assay: staining with graded concentrations of A2/MART1 multimer; Jurkat76 transfectants without CD8; full-length, on cells
[6] = target: MART1 peptide on HLA-A*02:01 (human); assay: staining with graded concentrations of A2/MART1 multimer; Jurkat76/CD8αβ transfectants; full-length, on cells
[7] = target: MART1 peptide on HLA-A*02:01 (human); assay: IL-2 ELISPOT; Jurkat76/CD8αβ transfectants; T2 cells pulsed with graded concentrations of MART1 27-35 peptide; full-length, on cells
[8] = target: MART1 peptide on HLA-A*02:01 (human); assay: staining with graded concentrations of A2/MART1 multimer; Jurkat76/CD8αβ transfectants; full-length, on cells; conditions: heteroclitic peptide, residues not given
[9] = target: MART1 peptide on HLA-A*02:01 (human); assay: staining with graded concentrations of A2/MART1 multimer; Jurkat76 transfectants without CD8; full-length, on cells; conditions: heteroclitic peptide, residues not given
[10] = target: T1, WT1 peptide on HLA-A*24:02 (human, heteroclitic peptide as printed; the natural WT1 235-243 residues are not given); assay: cytokine release
T1 peptide: CYTWNQMNL

[11] = chains Valpha:beta TRBV27 TRBJ1-2 CDR3
[12] = chains Valpha:beta TRBV27 TRBJ2-7 CDR3

Molecule: A2/MART1-specific TCR, clone DMF5
EC50 [1]: 0.03 mg/L
Functional avidity w/CD8 EC50 (IL-2 ELISPOT, peptide-pulsed T2 cells) [2]: 0.33 µM
Functional avidity w/o CD8 EC50 (IL-2 ELISPOT, peptide-pulsed T2 cells) [2]: 1.4 µM
Functional avidity with CD8 EC50 (IL-2 ELISPOT, peptide-pulsed T2 cells) [2]: 0.102 mg/L
Functional avidity without CD8 EC50 (IL-2 ELISPOT, peptide-pulsed T2 cells) [2]: 0.363 mg/L
EC50 [3]: 0.02 mg/L

B1: Clone 1086 (SIG35α with clone 1086 TCRβ) (protein)
chain 1: QKEVEQNSGPLSVPEGAIASLNCTYSDRGSQSFFWYRQYSGKSPELIMFIYSNGDKEDGRFTAQLNKASQYVSLLIRDSQPSDSATYLCAVSIGFGNVLHCGSGTQVIVLP
chain 2: CASSLHGPGGYTF
EC50 of multimer (structural avidity) [8, 11]: 0.01 mg/L
EC50 of multimer (structural avidity) [9, 11]: 0.04 mg/L

B2: Clone 788 (SIG35α with clone 788 TCRβ) (protein)
chain 1: B1 chain 1
chain 2: CASGPSYEQYF
EC50 of multimer (structural avidity) [8, 12]: 0.01 mg/L
EC50 of multimer (structural avidity) [9, 12]: 0.05 mg/L

B3: Clone 523 (SIG35α with clone 523 TCRβ) (protein)
chain 1: B1 chain 1
chain 2: CASGSYEQYF
EC50 of multimer (structural avidity) [8, 12]: 0.3 mg/L

Continued, values first:

EC50 of peptide [4]: 1.4 µM
EC50 of multimer (structural avidity) [5]: 0.03 mg/L
EC50 of multimer (structural avidity) [6]: 0.02 mg/L
EC50 of peptide [7]: 0.33 µM
Molecule: DMF5 TCR

binding result [10]: recognises
B4: Clone T53 (T53 TCRα with TAK1β) (TCR, V domains shown)
Valpha: EDKVVQSPLSLVVHEGDTVTLNCSYEVTNFRSLLWYKQEKKAPTFLFMLTSSGIEKKSGRLSSILDKKELFSILNITATQTGDSAVYLCAVITGGTSYGKLTFGQGTILTVHP
Vbeta: LAGVTQTPRYLIKTRGQQVTLSCSPISGHRSVSWYQQTPGQGLQFLFEYFSETQRNKGNFPGRFSGRQFSNSRSEMNVSTLELGDSALYLCASSLGWRETYNEQFFGPGTRLTVL

binding result [10]: recognises
B5: Clone T243 (T243 TCRα with TAK1β) (TCR, V domains shown)
Valpha: EDKVVQSPLSLVVHEGDTVTLNCSYEVTNFRSLLWYKQEKKAPTFLFMLTSSGIEKKSGRLSSILDKKELFSILNITATQTGDSAVYLCAVLTQTGANNLFFGTGTRLTVIP
Vbeta: B4 Vbeta

binding result [10]: recognises
B6: Clone T262 (T262 TCRα with TAK1β) (TCR, V domains shown)
Valpha: EDQVTQSPEALRLQEGESSSLNCSYTVSGLRGLFWYRQDPGKGPEFLFTLYSAGEEKEKERLKATLTKKESFLHITAPKPEDSATYLCAVQALRNNAGNNRKLIWGLGTSLAVNP
Vbeta: B4 Vbeta

binding result [10]: recognises
B7: Clone A262 (A262 TCRα with TAK1β) (TCR, V domains shown)
Valpha: EDKVVQSPLSLVVHEGDTVTLNCSYEVTNFRSLLWYKQEKKAPTFLFMLTSSGIEKKSGRLSSILDKKELFSILNITATQTGDSATYLCAVQNAGGTSYGKLTFGQGTILTVHP
Vbeta: B4 Vbeta
